{"source": "paper PMC6969166", "about": "“The molecular basis of pyrazinamide activity on Mycobacterium tuberculosis PanD” (Nature Communications, 2020)", "proteins": {"B1": {"name": "Mycobacterium tuberculosis PanD (aspartate decarboxylase), wild type, processed active enzyme (enzyme)", "chain 1": "MLRTMLKSKIHRATVTCADLHYVG", "chain 2": "SVTIDADLMDAADLLEGEQVTIVDIDNGARLVTYAITGERGSGVIGINGAAAHLVHPGDLVILIAYATMDDARARTYQPRIVFVDAYNKPIDMGHDPAFVPENAGELLDPRLGVG", "notes": "also called Mtb PanD; Rv3601c; copies: 4 + 4"}}, "molecular_target": "the molecule itself", "assay": "crystal structure", "data": [{"protein": "B1", "values": [{"measurement": "stoichiometry N", "value": 4}]}]}
